Experiment [1] concerns the target T1, recombinant human EGFR, biotinylated (human, UniProt P00533 25-645, biotinylated (site not stated)).
T1 construct: also called huEGFR; recombinant huEGFR
The experiment in a line: BLI (Octet Red 96), biotinylated antigen on streptavidin sensor, bsAb in solution, bivalent format. In general terms: Biolayer interferometry detects binding as a change in optical thickness at a sensor tip.

For experiment [2], the target named is T2, recombinant human NRP1, biotinylated (human, UniProt O14786-2 22-644, limits assumed, biotinylated (site not stated)).
T2 construct: also called huNRP1; recombinant NRP1
Described as above.

The record followed here is patent publication US20240101682A1 (PINETREE THERAPEUTICS, published 2024).

A value given as a limit tells only on which side of the number the result lay.

B1: bsAb with heavy chain polypeptide SEQ ID NO: 3 and light chain SEQ ID NO: 12 (bispecific antibody, human IgG2, kappa)
heavy: QVQLQESGPGLVKPSETLSLTCTVSGGSVSSGDYYWTWIRQSPGKGLEWIGHIYYSGNTNYNPSLKSRLTISIDTSKTQFSLKLSSVTAADTAIYYCVRDRVTGAFDIWGQGTMVTVSSASTKGPSVFPLAPCSRSTSESTAALGCLVKDYFPEPVTVSWNSGALTSGVHTFPAVLQSSGLYSLSSVVTVPSSNFGTQTYTCNVDHKPSNTKVDKTVERKCCVECPPCPAPPVAGPSVFLFPPKPKDTLMISRTPEVTCVVVDVSHEDPEVQFNWYVDGVEVHNAKTKPREEQFNSTFRVVSVLTVVHQDWLNGKEYKCKVSNKGLPAPIEKTISKTKGQPREPQVYTLPPSREEMTKNQVSLTCLVKGFYPSDIAVEWESNGQPENNYKTTPPMLDSDGSFFLYSKLTVDKSRWQQGNVFSCSVMHEALHNHYTQKSLSLSPGKGGGGSGGGGSGGGGSEVQLVESGGGLVQPGGSLRLSCAASGFTFSSYAMSWVRQAPGKGLEWVSQISPAGGYTNYADSVKGRFTISADTSKNTAYLQMNSLRAEDTAVYYCARGELPYFRMSKVMDVWGQGTLVTVSSGGGGSGGGGSGGGGSDIQMTQSPSSLSASVGDRVTITCRASQFLSSYLAWYQQKPGKAPKLLIYGASARASGVPSRFSGSGSGTDFTLTISSLQPEDFATYYCQQYLASPATFGQGTKVEIK
light: not shown
For the molecule B1, the Kd is < 100 pM in experiment [1] and 530 pM in experiment [2].

B2: bsAb with heavy chain polypeptide SEQ ID NO: 4 and light chain SEQ ID NO: 12 (bispecific antibody, human IgG2, kappa)
heavy: QVQLQESGPGLVKPSETLSLTCTVSGGSVSSGDYYWTWIRQSPGKGLEWIGHIYYSGNTNYNPSLKSRLTISIDTSKTQFSLKLSSVTAADTAIYYCVRDRVTGAFDIWGQGTMVTVSSASTKGPSVFPLAPCSRSTSESTAALGCLVKDYFPEPVTVSWNSGALTSGVHTFPAVLQSSGLYSLSSVVTVPSSNFGTQTYTCNVDHKPSNTKVDKTVERKCCVECPPCPAPPVAGPSVFLFPPKPKDTLMISRTPEVTCVVVDVSHEDPEVQFNWYVDGVEVHNAKTKPREEQFNSTFRVVSVLTVVHQDWLNGKEYKCKVSNKGLPAPIEKTISKTKGQPREPQVYTLPPSREEMTKNQVSLTCLVKGFYPSDIAVEWESNGQPENNYKTTPPMLDSDGSFFLYSKLTVDKSRWQQGNVFSCSVMHEALHNHYTQKSLSLSPGKGGGGSGGGGSGGGGSEVQLVESGGGLVQPGGSLRLSCAASGFTFSSYAMSWVRQAPGKGLEWVSQISPAGGYTNYADSVKGRFTISADTSKNTAYLQMNSLRAEDTAVYYCARGELPYYQMSKVMDVWGQGTLVTVSSGGGGSGGGGSGGGGSDIQMTQSPSSLSASVGDRVTITCRASQYFSSYLAWYQQKPGKAPKLLIYGASARASGVPSRFSGSGSGTDFTLTISSLQPEDFATYYCQQYLASPATFGQGTKVEIK
light: not shown
Regarding B2, in experiment [1], the Kd was < 100 pM.

B3: bsAb with heavy chain polypeptide SEQ ID NO: 2 and light chain SEQ ID NO: 12 (bispecific antibody, human IgG2, kappa)
heavy: QVQLQESGPGLVKPSETLSLTCTVSGGSVSSGDYYWTWIRQSPGKGLEWIGHIYYSGNTNYNPSLKSRLTISIDTSKTQFSLKLSSVTAADTAIYYCVRDRVTGAFDIWGQGTMVTVSSASTKGPSVFPLAPCSRSTSESTAALGCLVKDYFPEPVTVSWNSGALTSGVHTFPAVLQSSGLYSLSSVVTVPSSNFGTQTYTCNVDHKPSNTKVDKTVERKCCVECPPCPAPPVAGPSVFLFPPKPKDTLMISRTPEVTCVVVDVSHEDPEVQFNWYVDGVEVHNAKTKPREEQFNSTFRVVSVLTVVHQDWLNGKEYKCKVSNKGLPAPIEKTISKTKGQPREPQVYTLPPSREEMTKNQVSLTCLVKGFYPSDIAVEWESNGQPENNYKTTPPMLDSDGSFFLYSKLTVDKSRWQQGNVFSCSVMHEALHNHYTQKSLSLSPGKGGGGSGGGGSGGGGSEVQLVESGGGLVQPGGSLRLSCAASGFTFSSYAMSWVRQAPGKGLEWVSQISPAGGYTNYADSVKGRFTISADTSKNTAYLQMNSLRAEDTAVYYCARGELPYYRMSKVMDVWGQGTLVTVSSGGGGSGGGGSGGGGSDIQMTQSPSSLSASVGDRVTITCRASQYFSSYLAWYQQKPGKAPKLLIYGASSRASGVPSRFSGSGSGTDFTLTISSLQPEDFATYYCQQYLGSPPTFGQGTKVEIK
light: not shown
Consider B3, for which the figures for the Kd in experiment [1] and in experiment [2] were < 100 pM and 190 pM, respectively.

B4: bsAb with heavy chain polypeptide SEQ ID NO: 1 and light chain SEQ ID NO: 12 (control) (bispecific antibody, human IgG2, kappa)
heavy: QVQLQESGPGLVKPSETLSLTCTVSGGSVSSGDYYWTWIRQSPGKGLEWIGHIYYSGNTNYNPSLKSRLTISIDTSKTQFSLKLSSVTAADTAIYYCVRDRVTGAFDIWGQGTMVTVSSASTKGPSVFPLAPCSRSTSESTAALGCLVKDYFPEPVTVSWNSGALTSGVHTFPAVLQSSGLYSLSSVVTVPSSNFGTQTYTCNVDHKPSNTKVDKTVERKCCVECPPCPAPPVAGPSVFLFPPKPKDTLMISRTPEVTCVVVDVSHEDPEVQFNWYVDGVEVHNAKTKPREEQFNSTFRVVSVLTVVHQDWLNGKEYKCKVSNKGLPAPIEKTISKTKGQPREPQVYTLPPSREEMTKNQVSLTCLVKGFYPSDIAVEWESNGQPENNYKTTPPMLDSDGSFFLYSKLTVDKSRWQQGNVFSCSVMHEALHNHYTQKSLSLSPGKGGGGSGGGGSGGGGSHTPGNSKPTRTPRR
light: not shown
For the molecule B4, in experiment [2], the Kd is 69700 pM.
